Results published in patent US10011641B2.
Non-standard residues stand in square brackets, D forms with d. No end group written: not given here. Z06677 = not defined here

Assays:
[1] = target: PEP06548 (Artificial sequence); assay: affinity purification on anti-ABD agarose with about 2.3 mg ligand per ml resin, absorbance measurement
[2] = target: PEP17081 (Artificial sequence); assay: affinity purification on anti-ABD agarose, spectrophotometric analysis of the eluted pool

In the case of GSSLQ[Z06677][Z06677]VDC (designed binder, reading uncertain; also: printed as GSSLQ-[Z06677][Z06677]-VDC) [(Z06677)2-Cys], the purified protein obtained per ml of resin (mg per ml of resin) [1] is reported as 3.7, the sample molecules per ligand ([1]; scale: PEP06548 molecule per) is reported as 1 and the binding capacity (mg PEP17081 per ml resin) [2] is reported as 13.
